From patent US20190233495A1 (Sanofi, published 2019) come the findings set out here.

Non-standard residues stand in square brackets, D forms with d. Nle = CCCC[C@H](N)C(=O)O; Aib = CC(C)(N)C(=O)O

The chains are these.
T1: RXFP1 receptor (UniProt Q9HBX9 1-757, limits assumed)
T1 sequence (looked up): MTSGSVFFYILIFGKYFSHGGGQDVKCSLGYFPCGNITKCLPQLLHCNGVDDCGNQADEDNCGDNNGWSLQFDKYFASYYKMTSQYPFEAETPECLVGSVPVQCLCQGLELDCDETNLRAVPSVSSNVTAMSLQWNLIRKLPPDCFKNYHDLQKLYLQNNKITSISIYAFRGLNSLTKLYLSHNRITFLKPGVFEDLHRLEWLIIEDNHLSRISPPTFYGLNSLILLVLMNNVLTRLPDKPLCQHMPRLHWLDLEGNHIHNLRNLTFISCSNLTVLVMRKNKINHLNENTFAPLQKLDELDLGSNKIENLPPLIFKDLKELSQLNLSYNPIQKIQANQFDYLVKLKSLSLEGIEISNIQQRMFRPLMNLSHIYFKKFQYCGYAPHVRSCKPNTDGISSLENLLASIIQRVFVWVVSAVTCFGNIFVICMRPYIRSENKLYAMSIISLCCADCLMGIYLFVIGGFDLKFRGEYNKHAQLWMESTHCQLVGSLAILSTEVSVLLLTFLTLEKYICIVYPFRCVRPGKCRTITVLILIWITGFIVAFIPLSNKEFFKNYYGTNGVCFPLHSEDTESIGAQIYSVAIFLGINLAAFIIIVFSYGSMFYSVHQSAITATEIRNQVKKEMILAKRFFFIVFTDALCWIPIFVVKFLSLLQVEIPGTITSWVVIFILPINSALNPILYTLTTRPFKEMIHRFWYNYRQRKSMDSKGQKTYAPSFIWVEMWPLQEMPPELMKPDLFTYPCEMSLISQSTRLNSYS

B1: SEQ ID NO: 45 (peptide)
peptide: Ac-LEGREKVRAQI[Aib][Aib]EGMSTWS[Aib]RK-NH2
SMILES: CC[C@H](C)[C@H](NC(=O)[C@H](CCC(N)=O)NC(=O)[C@H](C)NC(=O)[C@H](CCCNC(=N)N)NC(=O)[C@@H](NC(=O)[C@H](CCCCN)NC(=O)[C@H](CCC(=O)O)NC(=O)[C@H](CCCNC(=N)N)NC(=O)CNC(=O)[C@H](CCC(=O)O)NC(=O)[C@H](CC(C)C)NC(C)=O)C(C)C)C(=O)NC(C)(C)C(=O)NC(C)(C)C(=O)N[C@@H](CCC(=O)O)C(=O)NCC(=O)N[C@@H](CCSC)C(=O)N[C@@H](CO)C(=O)N[C@H](C(=O)N[C@@H](Cc1c[nH]c2ccccc12)C(=O)N[C@@H](CO)C(=O)NC(C)(C)C(=O)N[C@@H](CCCNC(=N)N)C(=O)N[C@@H](CCCCN)C(N)=O)[C@@H](C)O
B2: SEQ ID NO: 44 (peptide)
peptide: Ac-LEGREKVRAQI[Aib][Aib]EG[Nle]STWS[Aib]RK-NH2
SMILES: CCCC[C@H](NC(=O)CNC(=O)[C@H](CCC(=O)O)NC(=O)C(C)(C)NC(=O)C(C)(C)NC(=O)[C@@H](NC(=O)[C@H](CCC(N)=O)NC(=O)[C@H](C)NC(=O)[C@H](CCCNC(=N)N)NC(=O)[C@@H](NC(=O)[C@H](CCCCN)NC(=O)[C@H](CCC(=O)O)NC(=O)[C@H](CCCNC(=N)N)NC(=O)CNC(=O)[C@H](CCC(=O)O)NC(=O)[C@H](CC(C)C)NC(C)=O)C(C)C)[C@@H](C)CC)C(=O)N[C@@H](CO)C(=O)N[C@H](C(=O)N[C@@H](Cc1c[nH]c2ccccc12)C(=O)N[C@@H](CO)C(=O)NC(C)(C)C(=O)N[C@@H](CCCNC(=N)N)C(=O)N[C@@H](CCCCN)C(N)=O)[C@@H](C)O
B3: SEQ ID NO: 47 (peptide)
peptide: Ac-LEGREKVRAK(Ac)I[Aib][Aib]EG[Nle]STWS[Aib]RK-NH2
SMILES: CCCC[C@H](NC(=O)CNC(=O)[C@H](CCC(=O)O)NC(=O)C(C)(C)NC(=O)C(C)(C)NC(=O)[C@@H](NC(=O)[C@H](CCCCNC(C)=O)NC(=O)[C@H](C)NC(=O)[C@H](CCCNC(=N)N)NC(=O)[C@@H](NC(=O)[C@H](CCCCN)NC(=O)[C@H](CCC(=O)O)NC(=O)[C@H](CCCNC(=N)N)NC(=O)CNC(=O)[C@H](CCC(=O)O)NC(=O)[C@H](CC(C)C)NC(C)=O)C(C)C)[C@@H](C)CC)C(=O)N[C@@H](CO)C(=O)N[C@H](C(=O)N[C@@H](Cc1c[nH]c2ccccc12)C(=O)N[C@@H](CO)C(=O)NC(C)(C)C(=O)N[C@@H](CCCNC(=N)N)C(=O)N[C@@H](CCCCN)C(N)=O)[C@@H](C)O
B4: SEQ ID NO: 46 (peptide)
peptide: Ac-LEGREKVRAQI[Aib][Aib]EGMSKWS[Aib]R-NH2
SMILES: CC[C@H](C)[C@H](NC(=O)[C@H](CCC(N)=O)NC(=O)[C@H](C)NC(=O)[C@H](CCCNC(=N)N)NC(=O)[C@@H](NC(=O)[C@H](CCCCN)NC(=O)[C@H](CCC(=O)O)NC(=O)[C@H](CCCNC(=N)N)NC(=O)CNC(=O)[C@H](CCC(=O)O)NC(=O)[C@H](CC(C)C)NC(C)=O)C(C)C)C(=O)NC(C)(C)C(=O)NC(C)(C)C(=O)N[C@@H](CCC(=O)O)C(=O)NCC(=O)N[C@@H](CCSC)C(=O)N[C@@H](CO)C(=O)N[C@@H](CCCCN)C(=O)N[C@@H](Cc1c[nH]c2ccccc12)C(=O)N[C@@H](CO)C(=O)NC(C)(C)C(=O)N[C@@H](CCCNC(=N)N)C(N)=O

For this test, the target named is T1, RXFP1 receptor. The test can be described thus: cell-based or functional assay.
As for B1, the “cAMP assay in OVCAR 5 cells EC50” value was 126 nM and the “cAMP assay in OVCAR 5 cells Emax” value is 98%.
For B2 the same measures were 82 nM and 101%.
For B3, the “cAMP assay in OVCAR 5 cells EC50” value stood at 117 nM and the “cAMP assay in OVCAR 5 cells Emax” value turned out to be 94%.
The corresponding values for B4 are 26.7 nM and 82%.
